B1: Fab 3: humanized 76H12 Fab variant, preferred; design in Table 86 (antibody, V domains shown)
VH: QVQLVQSGAEVKKPGASVKVSCKASGYTFTSYWMHWVRQAPGQGLEWIGNVYPGSGSTKYAQKFQGRATLTVDTSTSTVYMELSSLRSEDTAVYYCARPGNYEGFAYWGQGTLVTVSS
VL: DIQLTQSPSSLSASVGDRVTITCRASESVDSYGSSFMHWYQQKPGKPPKLLIYLASNLESGVPSRFSGSGSGTDFTLTISSLQPEDFATYYCQQNNEDPWTFGQGTKLEIK
B2: Fab 5: humanized 76H12 Fab variant; design in Table 86 (antibody, V domains shown)
VH: QVQLVQSGAEVKKPGASVKVSCKASGYTFTSYWMHWVRQAPGQGLEWIGNVYPGSGSTKYAQKFQGRATLTVDTSTSTVYMELSSLRSEDTAVYYCARPGNYEGFAYWGQGTLVTVSS
VL: NIQLTQSPSSLSASVGDRVTITCRASESVDSYGSSFMHWYQQKPGKPPKLLIYLASNLESGVPSRFSGSGSGTDFTLTISSLQPEDFATYYCQQNNEDPWTFGQGTKLEIK
B3: Fab 4: humanized 76H12 Fab variant; design in Table 86 (antibody, V domains shown)
VH: QVQLVQSGAEVKKPGASVKVSCKASGYTFTSYWMHWVRQAPGQGLEWIGNVYPGSGSTKYAQKFQGRATLTVDTSTSTVYMELSSLRSEDTAVYYCARPGNYEGFAYWGQGTLVTVSS
VL: DIQLTQSPSSLSASVGDRVTITCRASESVDSYGSSFMHWYQQKPGKPPKLLIYLASNLESGVPSRFSGSGSRTDFTLTISSLQPEDFATYYCQQNNEDPWTFGQGTKLEIK
B4: 14A10: anti-L1CAM mAb from AlivaMab mice (human variable regions, mouse IgG1 Fc); VH SEQ ID NO: 87, VL SEQ ID NO: 88 (antibody, V domains shown)
VH: EVQMVESGGGLVQPGGSLRLSCAAPGFIFSSYNMNWVRQAPGKGLEWVSYISSSSSTTYYADSVKGRFTISRDNAKNSLYLQMNSLRDEDTAVYYCASLYSGYDYYYYYGMDVWGQGTTVTVSS
VL: DIVMTQTPLSSPVSLGQPASISCRSSQSLVHSDGNTYLSWLQQRPGQPPRVLIYKISKRFSGVPDRFSGSGAGTDFTLKISRVEAEDVGVYYCMQATQFPFTFGPGTKVDIK

How the values were obtained:
[1] = target: T1, recombinant L1CAM-Fc fusion protein (Homo sapiens, UniProt P32004); experiment: BLI binding of 76H12 Fabs to recombinant L1CAM-Fc; details: L1CAM-Fc on AHC biosensors, Fab 3-200 nM, 1:1 model
T1 construct: purchased R&D Systems; host or cells: mammalian cells
T1 sequence (P32004 20-1120): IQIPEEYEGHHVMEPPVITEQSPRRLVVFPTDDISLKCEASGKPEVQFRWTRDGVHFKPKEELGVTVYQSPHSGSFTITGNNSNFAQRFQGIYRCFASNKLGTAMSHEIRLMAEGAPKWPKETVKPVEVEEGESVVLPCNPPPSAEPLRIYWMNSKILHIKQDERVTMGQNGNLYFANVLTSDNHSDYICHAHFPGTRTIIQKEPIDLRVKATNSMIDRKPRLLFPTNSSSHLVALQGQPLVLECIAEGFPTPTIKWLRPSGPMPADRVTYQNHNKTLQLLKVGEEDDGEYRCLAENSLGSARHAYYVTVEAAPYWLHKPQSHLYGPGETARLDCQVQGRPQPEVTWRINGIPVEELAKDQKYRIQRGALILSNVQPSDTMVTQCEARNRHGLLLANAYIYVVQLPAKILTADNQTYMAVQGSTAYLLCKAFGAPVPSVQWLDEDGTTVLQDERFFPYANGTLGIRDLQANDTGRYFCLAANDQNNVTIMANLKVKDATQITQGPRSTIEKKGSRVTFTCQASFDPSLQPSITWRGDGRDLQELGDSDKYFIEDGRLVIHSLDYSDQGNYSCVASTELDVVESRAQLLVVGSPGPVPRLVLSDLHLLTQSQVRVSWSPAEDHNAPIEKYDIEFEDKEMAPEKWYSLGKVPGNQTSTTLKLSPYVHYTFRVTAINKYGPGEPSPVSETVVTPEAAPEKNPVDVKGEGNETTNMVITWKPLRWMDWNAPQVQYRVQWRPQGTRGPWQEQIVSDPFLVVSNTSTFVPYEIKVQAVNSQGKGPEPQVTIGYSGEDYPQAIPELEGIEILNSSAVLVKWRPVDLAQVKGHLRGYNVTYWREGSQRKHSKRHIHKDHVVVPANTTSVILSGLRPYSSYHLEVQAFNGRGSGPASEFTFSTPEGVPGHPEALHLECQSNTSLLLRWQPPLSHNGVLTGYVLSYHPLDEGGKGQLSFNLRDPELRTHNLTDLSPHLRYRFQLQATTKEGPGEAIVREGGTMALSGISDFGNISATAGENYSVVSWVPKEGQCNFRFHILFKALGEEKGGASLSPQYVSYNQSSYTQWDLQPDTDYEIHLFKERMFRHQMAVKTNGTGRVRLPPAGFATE
Text: A total of 11 humanized 76H12 Fab variants (Fabs 2-12) were generated in addition to a chimeric 76H12 Fab (Fab 1) containing the parental murine VH and VL sequences. The chimeric Fab served as the benchmark for comparative assessment of humanized Fab variants. Humanized Fabs were first assessed by flow cytometry for binding to 293T cells engineered to overexpress L1CAM (FIG. 32A). All humanized variants bound to the L1CAM overexpressing cells, with most binding comparably to the chimeric 76H12 Fab. […] Here, recombinant L1CAM-Fc fusion protein was immobilized onto anti-Human IgG Fc Capture (AHC) biosensors and binding of Fabs was measured kinetically over a 3-200 nM concentration range. Kinetic data were fitted to a 1:1 binding model to compute association (kon) and dissociation (koff) rate constants, in addition to equilibrium dissociation constants (KD) as shown in Table 87. […] From these, Fab 3 represents the preferred humanized variant given higher identity to human germline IGHV1-46 and IGKV1-39 sequences resulting from fewer human-to-murine framework back mutations.

[2] = target: T2, HEK293FT cells transiently transfected with mouse L1CAM (Mus musculus, UniProt P11627); experiment: Flow cytometry binding to HEK293FT cells transiently transfected with mouse L1CAM
T2 construct: expressed in transfected cells; host or cells: HEK293FT (transient)
T2 sequence (P11627 20-1260): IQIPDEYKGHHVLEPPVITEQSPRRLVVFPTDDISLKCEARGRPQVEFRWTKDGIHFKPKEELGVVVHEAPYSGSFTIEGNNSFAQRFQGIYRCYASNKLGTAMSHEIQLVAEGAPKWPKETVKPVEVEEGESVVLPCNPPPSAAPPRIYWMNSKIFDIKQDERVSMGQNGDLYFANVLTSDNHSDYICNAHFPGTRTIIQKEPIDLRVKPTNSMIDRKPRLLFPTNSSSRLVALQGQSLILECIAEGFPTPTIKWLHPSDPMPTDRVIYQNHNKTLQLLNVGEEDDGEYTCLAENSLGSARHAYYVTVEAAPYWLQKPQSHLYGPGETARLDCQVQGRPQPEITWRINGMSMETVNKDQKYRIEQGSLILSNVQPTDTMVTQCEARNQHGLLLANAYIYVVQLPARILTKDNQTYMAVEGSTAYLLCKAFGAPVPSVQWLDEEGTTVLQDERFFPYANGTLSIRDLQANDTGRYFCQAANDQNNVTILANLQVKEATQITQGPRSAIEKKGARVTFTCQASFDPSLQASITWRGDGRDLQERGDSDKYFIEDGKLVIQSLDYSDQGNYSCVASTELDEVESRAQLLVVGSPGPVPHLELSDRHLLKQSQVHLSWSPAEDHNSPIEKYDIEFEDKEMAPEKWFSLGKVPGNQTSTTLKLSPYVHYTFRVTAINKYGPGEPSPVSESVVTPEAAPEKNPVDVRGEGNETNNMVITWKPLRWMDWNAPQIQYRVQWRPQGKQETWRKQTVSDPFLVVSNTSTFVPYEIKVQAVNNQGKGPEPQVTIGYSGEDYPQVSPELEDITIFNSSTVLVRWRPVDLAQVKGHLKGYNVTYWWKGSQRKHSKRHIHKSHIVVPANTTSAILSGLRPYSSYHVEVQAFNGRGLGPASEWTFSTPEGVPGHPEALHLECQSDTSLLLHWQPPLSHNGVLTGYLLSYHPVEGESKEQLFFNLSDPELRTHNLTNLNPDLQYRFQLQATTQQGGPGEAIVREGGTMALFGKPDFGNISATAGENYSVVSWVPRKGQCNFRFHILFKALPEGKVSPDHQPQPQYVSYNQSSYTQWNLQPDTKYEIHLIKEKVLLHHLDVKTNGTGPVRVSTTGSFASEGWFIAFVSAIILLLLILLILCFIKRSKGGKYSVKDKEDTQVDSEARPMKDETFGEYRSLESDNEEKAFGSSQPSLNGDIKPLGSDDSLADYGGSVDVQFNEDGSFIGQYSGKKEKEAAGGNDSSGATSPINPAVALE
Experimental: Hybridoma Screening. Binding to human L1CAM protein was tested by ELISA and to a HEK293T cell line overexpressing human L1CAM by flow cytometry. […] Cross-reactivity to cynomolgus L1CAM was not assessed at this point, as it is >99% homologous to human L1CAM. […] The antibodies were tested for binding to MDA-MB-231 cells, a breast cancer cell line that endogenously expresses L1CAM, followed by analysis of their internalization efficacy in MDA-MB-231 cells.
Binding Analysis. […] Dissociation constants (KD) for binding to soluble human and cynomolgus monkey L1CAM-His were determined using biolayer interferometry (BLI). In addition, EC50 values for binding to cell-bound L1CAM were established by flow cytometry using HEK293T/FT cells overexpressing human or mouse L1CAM, MCF-7 cells, and MDA-MB-231 cells. In addition, the epitope regions of the mAbs were determined by BLI interaction analysis with L1CAM subdomains (Ig and FN) expressed individually, and by a BLI competition experiment to identify epitope bins.
The binding curves for each antibody and cell line normalized to secondary antibody only staining (MFI ratio) are shown in FIGS. 14A-14C. EC50 values were determined by non-linear regression (Table 70). […] It is possible that differences in the conformation and oligomerization of L1CAM, depending on the surface expression level, contributed to the binding pattern. […]

Molecule	affinity for L1CAM relative to the chimeric Fab (Fab 1) [1]	cross-reactivity with mouse L1CAM [2]
B1	equivalent or better affinity than the chimeric Fab	
B2	equivalent or better affinity than the chimeric Fab	
B3	equivalent or better affinity than the chimeric Fab	
B4		cross-reacted with mouse L1CAM

Reference: US20250340636A1, “ANTIBODIES TARGETING L1CAM AND USES THEREOF” (MEMORIAL SLOAN-KETTERING CANCER CENTER, priority 2023, published 2025)
